This note sets out measurements from article PMC4344524, “Combinatorial recognition of a complex telomere repeat sequence by the Candida parapsilosis Cdc13AB heterodimer”.

The target of data set [1] is CpCdc13AB-DBD complex (Candida parapsilosis) (UniProt G8B7U9+G8B5A5). The data set is described as follows: EMSA. The settings on record: stated as full-length Kd (~10 nM) at least 100-fold lower; weak shift detected; EMSA: 50 mM Tris-HCl pH 7.5, 2 mM MgCl2, 10 mM NaCl, 1 mM spermidine, 1 mM DTT, 200 ng/ul poly(dI-dC), 5% glycerol, 25 C 60 min; crosslinking: same buffer …. (In general: A gel shift assay detects complexes by their altered migration in electrophoresis.)

In data set [2] the target is T1, CpCdc13AB heterodimer: His6-SUMO-Cdc13A + GST-Cdc13B-FLAG (Candida parapsilosis, UniProt G8B7U9;G8B5A5 1-456;1-475).
T1 sequence 1: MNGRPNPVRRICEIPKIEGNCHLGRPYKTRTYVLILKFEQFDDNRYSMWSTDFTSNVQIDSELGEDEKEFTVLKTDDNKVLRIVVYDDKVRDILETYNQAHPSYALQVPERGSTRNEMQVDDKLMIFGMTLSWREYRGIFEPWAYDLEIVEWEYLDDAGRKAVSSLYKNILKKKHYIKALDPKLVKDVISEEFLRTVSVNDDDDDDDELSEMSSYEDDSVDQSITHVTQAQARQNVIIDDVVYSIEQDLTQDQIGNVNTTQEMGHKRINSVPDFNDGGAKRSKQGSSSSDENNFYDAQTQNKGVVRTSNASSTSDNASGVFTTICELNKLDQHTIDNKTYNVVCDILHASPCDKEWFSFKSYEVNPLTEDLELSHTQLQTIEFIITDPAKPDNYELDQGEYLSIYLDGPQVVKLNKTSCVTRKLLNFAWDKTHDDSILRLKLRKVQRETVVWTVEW
T1 sequence 2: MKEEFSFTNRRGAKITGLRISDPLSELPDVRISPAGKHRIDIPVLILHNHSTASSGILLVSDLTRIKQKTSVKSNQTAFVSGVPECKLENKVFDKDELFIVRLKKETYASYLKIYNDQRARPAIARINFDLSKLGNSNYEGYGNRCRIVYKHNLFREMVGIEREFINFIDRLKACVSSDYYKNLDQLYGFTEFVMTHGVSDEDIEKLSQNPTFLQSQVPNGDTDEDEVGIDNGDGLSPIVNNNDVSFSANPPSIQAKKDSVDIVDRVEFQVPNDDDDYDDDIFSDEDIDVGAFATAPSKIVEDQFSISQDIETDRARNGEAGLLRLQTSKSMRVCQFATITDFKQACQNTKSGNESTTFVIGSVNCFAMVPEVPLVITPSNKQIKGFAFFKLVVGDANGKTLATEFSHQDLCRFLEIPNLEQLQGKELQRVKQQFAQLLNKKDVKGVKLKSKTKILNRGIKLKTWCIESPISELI
The data set is described as follows: UV photo-crosslinking; Cdc13A adducts; EMSA: 50 mM Tris-HCl pH 7.5, 2 mM MgCl2, 10 mM NaCl, 1 mM spermidine, 1 mM DTT, 200 ng/ul poly(dI-dC), 5% glycerol, 25 C 60 min; crosslinking: same buffer, 22 C 1 h, then UV on ice 20 min. The settings on record: protein: recombinant; tags: His6-SUMO (A); GST and FLAG (B); copies: 1;1; label: 32P.

Data set [3] addresses T1, CpCdc13AB heterodimer: His6-SUMO-Cdc13A …. Nature of the data set: competition; affinity unaffected; EMSA: 50 mM Tris-HCl pH 7.5, 2 mM MgCl2, 10 mM NaCl, 1 mM spermidine, 1 mM DTT, 200 ng/ul poly(dI-dC), 5% glycerol, 25 C 60 min; crosslinking: same buffer, 22 C 1 h, then UV on ice 20 min. The conditions noted are these: protein: recombinant; tags: His6-SUMO (A); GST and FLAG (B); copies: 1;1.

For data set [4] the target is unchanged. Nature of the data set: UV photo-crosslinking; mostly Cdc13B adducts; EMSA: 50 mM Tris-HCl pH 7.5, 2 mM MgCl2, 10 mM NaCl, 1 mM spermidine, 1 mM DTT, 200 ng/ul poly(dI-dC), 5% glycerol, 25 C 60 min; crosslinking: same buffer, 22 C 1 h, then UV on ice 20 min. The settings on record: protein: recombinant; tags: His6-SUMO (A); GST and FLAG (B); copies: 1;1; label: 32P.

Data set [5] shares this target. Nature of the data set: competition; vs CpG2 probe; EMSA: 50 mM Tris-HCl pH 7.5, 2 mM MgCl2, 10 mM NaCl, 1 mM spermidine, 1 mM DTT, 200 ng/ul poly(dI-dC), 5% glycerol, 25 C 60 min; crosslinking: same buffer, 22 C 1 h, then UV on ice 20 min. The conditions noted are these: protein: recombinant; tags: His6-SUMO (A); GST and FLAG (B); copies: 1;1.
The target is the same in data set [6]. The data set is described as follows: competition; no effect; EMSA: 50 mM Tris-HCl pH 7.5, 2 mM MgCl2, 10 mM NaCl, 1 mM spermidine, 1 mM DTT, 200 ng/ul poly(dI-dC), 5% glycerol, 25 C 60 min; crosslinking: same buffer, 22 C 1 h, then UV on ice 20 min. The settings on record: protein: recombinant; tags: His6-SUMO (A); GST and FLAG (B); copies: 1;1.
The target is the same in data set [7]. The data set is described as follows: competition; vs CpG2 probe; EMSA: 50 mM Tris-HCl pH 7.5, 2 mM MgCl2, 10 mM NaCl, 1 mM spermidine, 1 mM DTT, 200 ng/ul poly(dI-dC), 5% glycerol, 25 C 60 min; crosslinking: same buffer, 22 C 1 h, then UV on ice 20 min. The settings on record: protein: recombinant; tags: His6-SUMO (A); GST and FLAG (B); copies: 1;1. This is another data set of the same source.

Data set [8] shares this target. The data set is described as follows: competition; no effect of truncation; EMSA: 50 mM Tris-HCl pH 7.5, 2 mM MgCl2, 10 mM NaCl, 1 mM spermidine, 1 mM DTT, 200 ng/ul poly(dI-dC), 5% glycerol, 25 C 60 min; crosslinking: same buffer, 22 C 1 h, then UV on ice 20 min. The settings on record: protein: recombinant; tags: His6-SUMO (A); GST and FLAG (B); copies: 1;1.
Data set [9] has the same target. Nature of the data set: competition; inactive as competitor; EMSA: 50 mM Tris-HCl pH 7.5, 2 mM MgCl2, 10 mM NaCl, 1 mM spermidine, 1 mM DTT, 200 ng/ul poly(dI-dC), 5% glycerol, 25 C 60 min; crosslinking: same buffer, 22 C 1 h, then UV on ice 20 min. The conditions noted are these: protein: recombinant; tags: His6-SUMO (A); GST and FLAG (B); copies: 1;1.
Data set [10] shares this target. The data set is described as follows: EMSA; apparent Kd; EMSA: 50 mM Tris-HCl pH 7.5, 2 mM MgCl2, 10 mM NaCl, 1 mM spermidine, 1 mM DTT, 200 ng/ul poly(dI-dC), 5% glycerol, 25 C 60 min; crosslinking: same buffer, 22 C 1 h, then UV on ice 20 min. The conditions noted are these: protein: recombinant; tags: His6-SUMO (A); GST and FLAG (B); copies: 1;1.
The target is the same in data set [11]. The data set is described as follows: UV photo-crosslinking; lower product level than IO-1 and IO-3; EMSA: 50 mM Tris-HCl pH 7.5, 2 mM MgCl2, 10 mM NaCl, 1 mM spermidine, 1 mM DTT, 200 ng/ul poly(dI-dC), 5% glycerol, 25 C 60 min; crosslinking: same buffer, 22 C 1 h, then UV on ice 20 min. The settings on record: protein: recombinant; tags: His6-SUMO (A); GST and FLAG (B); copies: 1;1; label: 32P.

The target is the same in data set [12]. The data set is described as follows: EMSA; EMSA: 50 mM Tris-HCl pH 7.5, 2 mM MgCl2, 10 mM NaCl, 1 mM spermidine, 1 mM DTT, 200 ng/ul poly(dI-dC), 5% glycerol, 25 C 60 min; crosslinking: same buffer, 22 C 1 h, then UV on ice 20 min. The settings on record: protein: recombinant; tags: His6-SUMO (A); GST and FLAG (B); copies: 1;1.

Take ATTATACTGAGGTCCGGATGTTG [CpG1]: the Kd in [1] is over 1000 nM.

On to ATTATACTGAGGTCCGGATGTTG (ssDNA, 5-iodo-dU at T19 of CpG1) [IO-3], for which the binding result in data set [2] is “binds”.

In the case of CGATTACTGAGGTCCGGATGTTG (ssDNA) [CpG1-Ct1], the binding result in [3] is listed as “binds”.

On to ATTATACTGAGGTCCGGATGTTG (ssDNA, 5-iodo-dU at T8 of CpG1) [IO-1], for which the binding result in data set [4] is “binds”.

For the molecule CCGGATGTTGATTATACTGAGGT (ssDNA) [CpG1b], the binding result in data set [5] is recorded as “no binding”.

For ATTACATTGAGGTCCGGATGTTG (ssDNA) [CpG1-Ct2], the binding result in data set [6] was “binds”.

Regarding CTGATGTTCTTTAGGGAGGTACTGATGTTCTTTAGGGAGGTA (ssDNA) [ClG2], in data set [7], the binding signal was ~20 fold higher concentration for 50% inhibition.

As for TACTGAGGTCCGGATGTTG (ssDNA) [CpG1-Δ1], in data set [8], the binding result is “binds”.

With GATCATTGGTGTACGGATGTCACGATCATTGGTGTACGGATGTCAC (ssDNA) [CtG2], in [5], the binding result is “no binding”.

In the case of GTGGGTGTGTGGGTGTGTGGGTGTGTGGGTGTGT (ssDNA) [ScTG34], the binding result in data set [5] was “no binding”.

In the case of ATTATACTGAGGTCCGGATGTCA (ssDNA) [CpG1-Ct4], the binding result in data set [3] was “binds”.

Regarding ATTATACTGAGGTCCGGAT (ssDNA) [CpG1-Δ4], the binding result in data set [9] is “no binding”.

Regarding ATTATACTGAGGTCCGGATGTTGATTATACTGAGGTCCGGATGTTG (ssDNA) [CpG2], the Kd in data set [10] was about 7.07 nM.

As to ATTATACTGAGGTCCGGATGTTG (ssDNA, 5-iodo-dU at T13 of CpG1) [IO-2], the binding result in data set [11] is recorded as “binds”.

Take ATTATACTGAGGTCCGGATGTTG (ssDNA) [CpG1]: the Kd in data set [12] was about 10 nM.
